Reference: patent US20220056139A1

Molecular target: HLA-DR (human)
Assay: flow cytometry on Raji cells, APC mouse anti-human IgG (FIG. 21B)

B1: huLym-1-B antibody (antibody, human IgG1, V domains shown)
VH: EVQLVESGGGLVQPGRSLRLTCTASGFSLTSYGVHWVRQPPGKGLEWLAVIWSDGSTTYNSALKSRLTISKDNSKSQVYLQMNSLRAEDTAVYYCARHYGSTLAFASWGQGTLVTVSS
VL: DIQMTQSPSSLSASVGDRVTITCRASVNIYSYLAWYQQKPGKAPNLLIYNAKILAEGVPSRFSGSGSGTDFTLTISSLQPEDFASYYCQHHYGTFTFGQGTKVEIK
- fold higher ED50 than chLym-1: 2 fold
